Source: patent publication US20220169693A1, “Screening Assays, Modulators and Modulation of Intracellular Signalling Mediated by Immunoglobulin Superfamily Cell Adhesion Molecules” (Monash University, priority 2018, published 2022)
One block for each molecule: values may come before it.

Legend:
AT1R = molecular target: T1, AT1R (Homo sapiens, UniProt P30556); assay: Functional competition: Ang II-induced p65/PCNA expression in AT1R-CHO cells transfected with full length mutant S391A-RAGE; format: cell-based; details: for transactivation of the over-expressed cytosolic tail in the presence of S391A-RAGE1-404 (p65): Ang II 1 μM 2 h (FIG. 7A)
T1 construct: Rluc8; expressed in transfected cells; S391A-RAGE transiently transfected
T1 sequence (P30556 1-359): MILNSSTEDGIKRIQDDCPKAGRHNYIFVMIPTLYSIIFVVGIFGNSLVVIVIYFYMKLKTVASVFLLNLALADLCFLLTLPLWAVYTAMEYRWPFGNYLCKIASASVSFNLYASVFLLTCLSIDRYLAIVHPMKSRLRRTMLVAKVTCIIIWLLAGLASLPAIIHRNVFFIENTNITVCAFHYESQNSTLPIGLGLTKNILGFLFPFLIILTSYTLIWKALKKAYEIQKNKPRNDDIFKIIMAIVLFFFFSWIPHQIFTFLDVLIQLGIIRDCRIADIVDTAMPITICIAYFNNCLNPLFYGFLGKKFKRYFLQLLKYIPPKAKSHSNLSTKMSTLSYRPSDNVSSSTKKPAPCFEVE
Procedure: Adult retinal pigment epithelial (ARPE) cells were cultured in Dulbecco's modified Eagle's medium (DMEM)/F12 endothelial cell growth supplement (ECGS) supplemented media. Chinese Hamster Ovary (CHO) cells were cultured using F12 media (10% FCS with 2 mM glutamine). Human microvascular endothelial cells (HMEC) were cultured in MCDB 131 medium (10% FCS with 10 mM glutamine, EGF and hydrocortisone).
100 ng of AT1R-Rluc8 construct was transfected into CHO cells using Lipofectamine 2000 (Thermo). Stable transfectants were selected using G418. AT1R-CHO were then transiently transfected with the IgSF CAM and/or RAGE constructs using Lipofectamine 2000 (Invitrogen) and incubated for 16h.
After 2 hours of exposure to Ang II (1 μM) cells were placed in Trizol, mRNA extracted and cDNA synthesized. Changes in the gene expression of the NFκB subunit, p65 (RelA) or NFκB-activated target genes (e.g ICAM-1) were estimated by quantitative real-time RT-PCR, performed using the TaqMan system based on real-time detection of accumulated fluorescence (ABI Prism 7700, Perkin-Elmer Inc, PE Biosystems, Foster City, Calif., USA). Gene expression was normalized to 18S mRNA and reported as fold change compared to the level of expression in untreated control mice/cells, which were given an arbitrary value of 1.

RAGE/Rluc8 = molecular target: T2, RAGE/Rluc8 (UniProt Q15109 23-404); assay: BRET saturation assay (FIGS. 13A, 13D)
T2 construct: whole, on cells; not shown: Rluc8, a variant of Renilla luciferase
Procedure: (§1) The BRET ratio was calculated by subtracting the ratio of ‘acceptor emission’ over ‘donor emission’ for a cell sample expressing Rluc8-tagged protein alone from the same ratio for a cell sample expressing both Rluc8 and Venus-tagged proteins. Alternatively, the ligand-induced BRET signal was calculated by subtracting the ratio of ‘acceptor emission’ over ‘donor emission’ for a vehicle-treated cell sample from the same ratio for a second aliquot of the same cells treated with agonist.
(§2) For the BRET kinetic assays, the final pre-treatment reading is presented at the zero time point (time of ligand/vehicle addition). For the BRET saturation assays, fluorescence after light excitation was measured on an EnVision 2102 multi-label plate reader (PerkinElmer, Glen Waverley, Victoria, Australia) using a 485/14 excitation filter, 535/25 emission filter and D505 mirror. The fluorescence/luminescence ratio was generated by dividing the fluorescence values in arbitrary units (obtained with the EnVision) by the luminescence values also in arbitrary units (obtained as part of the BRET assay).

[1] = molecular target: T3, Rluc8-labelled CADM4 (CADM4/Rluc8) (UniProt Q8NFZ8 21-388); assay: BRET saturation assay (FIG. 12D)
T3 construct: whole, on cells; not shown: Rluc8, a variant of Renilla luciferase
T3 sequence (looked up): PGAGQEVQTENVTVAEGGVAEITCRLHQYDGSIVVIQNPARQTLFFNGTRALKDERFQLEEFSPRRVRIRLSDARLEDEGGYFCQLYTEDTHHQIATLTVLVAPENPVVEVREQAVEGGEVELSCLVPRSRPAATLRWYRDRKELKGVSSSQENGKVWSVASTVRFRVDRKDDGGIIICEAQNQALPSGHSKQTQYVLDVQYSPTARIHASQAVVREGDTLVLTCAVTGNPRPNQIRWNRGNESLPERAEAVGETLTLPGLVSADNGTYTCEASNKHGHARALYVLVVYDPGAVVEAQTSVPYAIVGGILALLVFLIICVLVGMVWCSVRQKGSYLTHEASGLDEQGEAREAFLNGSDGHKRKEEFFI
Procedure: as §1, §2

[2] = molecular target: T4, untagged RAGE (RAGE cDNA co-transfected) (UniProt Q15109 23-404); assay: BRET saturation assay, competition with EpCAM/Rluc8 (FIG. 11D)
T4 construct: whole, on cells
Procedure: as §1, §2

T4 sequence (Q15109 23-404): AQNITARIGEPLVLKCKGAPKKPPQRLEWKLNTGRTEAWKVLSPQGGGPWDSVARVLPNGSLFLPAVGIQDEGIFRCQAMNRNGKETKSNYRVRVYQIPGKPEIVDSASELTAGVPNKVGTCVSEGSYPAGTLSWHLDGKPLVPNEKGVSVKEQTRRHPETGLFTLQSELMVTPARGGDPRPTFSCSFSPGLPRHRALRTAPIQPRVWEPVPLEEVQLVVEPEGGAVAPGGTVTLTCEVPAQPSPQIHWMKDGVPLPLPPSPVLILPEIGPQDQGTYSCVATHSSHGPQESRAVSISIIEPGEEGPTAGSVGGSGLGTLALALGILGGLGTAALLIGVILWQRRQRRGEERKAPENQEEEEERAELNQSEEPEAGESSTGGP
T2 sequence (Q15109 23-404): as above

Molecule: MSVRQKGSYLTHEASGLDEQGEAREAFLNGSDGHKRKEEFFI [CADM4336-388]
transactivation of the over-expressed cytosolic tail in the presence of S391A-RAGE1-404 (p65) (AT1R; AT1R-CHO cells): able to overcome inhibition of transactivation

Molecule: MKKSKTASKHVNKDLGNMEENKKLEENNHKTEA (Synthetic peptide - Truncated amino acid sequence of human ALCAM protein corresponding to residues 551 to 583 (corresponding to the cytosolic tail of ALCAM)) [ALCAM551-583]
transactivation of the over-expressed cytosolic tail in the presence of S391A-RAGE1-404 (p65) (AT1R; AT1R-CHO cells): able to overcome inhibition of transactivation

transactivation by AT1R as indicated by PCNA expression after transfection of the mutant (AT1R; Ang II 1 μM 2 h, vs pCIneo (FIG. 7B)): unable to be transactivated
Molecule: S391A-RAGE1-404: full length human mutant S391A-RAGE
ability of Ang II to induce p65-NFκB expression after transfection of the mutant (AT1R; AT1R-CHO cells, Ang II 1 μM 2 h, vs pCIneo (FIG. 7A)): fails to confer the ability of Ang II to induce expression

binding result (RAGE/Rluc8): binds
binding result [1]: binds
binding result [2]: binds
B1: Venus-tagged Angiotensin II receptor 1 (AT1/Venus) (receptor, UniProt P30556 1-359, looked up)
chain: T1 sequence (P30556 1-359)
notes: whole, on cells; not shown: Venus, a variant of green fluorescent protein
